Results on 94 variants are retold here after paper PMC11969024, “Development of chemokine network inhibitors using combinatorial saturation mutagenesis” (Communications Biology, 2025).

B1: peptide HD2 (from tick evasin EVA4) / CXCL13 (biotinylated, synthetic) (parent)
chain 1: EEDDYTAYAPLTCYFT
chain 2: VLEVYYTSLRCRCVQESSVFIPRRFIDRIQILPRGNGCPRKEIIVWKKNKSIVCVDPQAEWIQRMMEVLRKRSSSTLPVPVFKRKIP
B2: peptide HD2 (from tick evasin EVA4) / CCL19 (biotinylated, synthetic) (parent)
chain 1: EEDDYTAYAPLTCYFT
chain 2: GTNDAEDCCLSVTQKPIPGYIVRNFHYLLIKDGCRVPAVVFTTLRGRQLCAPPDQPWVERIIQRLQRTSAKMKRRSS

One experiment covers variants of B1. As to conditions: with CXCL13 (biotinylated, synthetic); scale: log2.
chain 1 EEDDYTAYAYLTCYFT [chain 1 P10Y]: the enrichment was -7.34. chain 1 EEDDYTAYAILTCYFT [chain 1 P10I]: the enrichment is -7.21.

Regarding chain 1 EEDDYTAYATLTCYFT [chain 1 P10T], the enrichment was -6.64. For the variant chain 1 EEDDYTAYAKLTCYFT [chain 1 P10K], the enrichment is -5.74. As to chain 1 EEDDYTAYACLTCYFT [chain 1 P10C], the enrichment was -8.5. On the same count and under the same terms, under chain 1 EEDDYTAYAFLTCYFT [chain 1 P10F] stands -8.19. In the case of chain 1 EEDDYTAYAQLTCYFT [chain 1 P10Q], the enrichment was -5.17. For the variant chain 1 EEDDYTAYARLTCYFT [chain 1 P10R], the enrichment was -7.85. Regarding chain 1 EEDDYTCYAPLTCYFT [chain 1 A7C], the enrichment was -8.62. As for chain 1 EEDDYTAYAPDTCYFT [chain 1 L11D], the enrichment is -7.86.

Turning to chain 1 EEDDYTAYAPGTCYFT [chain 1 L11G], the enrichment is -9.02.

chain 1 EEDDYTAYAPPTCYFT [chain 1 L11P]: the enrichment is -6.87. For chain 1 EEDDYTAYAPKTCYFT [chain 1 L11K], the enrichment was -5.76. With chain 1 EEDDYTAYAPQTCYFT [chain 1 L11Q], the enrichment was -5.03.

As to chain 1 EEDDYTAYAPETCYFT [chain 1 L11E], the enrichment was -6.94. On the same count and under the same terms, under chain 1 EEDDYTAYAPLTCLFT [chain 1 Y14L] stands -9.26; under chain 1 EEDDYTAYAPLTCEFT [chain 1 Y14E], -7.54; under chain 1 EEDDYTAYAPLTCAFT [chain 1 Y14A], -8.81. The same measure, in the same setting: as for chain 1 EEDDYTAYAPLTCSFT [chain 1 Y14S], the figure is -8.45. Turning to chain 1 EEDDYTAYAPLTCKFT [chain 1 Y14K], the enrichment was -6.94. For the variant chain 1 EEDDYTAYAPLTCNFT [chain 1 Y14N], the enrichment was -5.67. On to chain 1 EEDDYTAYAPLTCPFT [chain 1 Y14P], for which the enrichment was -7.63. With chain 1 EEDDYTAYAPLTCIFT [chain 1 Y14I], the enrichment was -6.05. In the case of chain 1 EEDDYTAYAPLTCQFT [chain 1 Y14Q], the enrichment is -6.82. For the variant chain 1 EEDDYTAYAPLTCDFT [chain 1 Y14D], the enrichment was -6.3. In the case of chain 1 EEDDYTAYAPLTCRFT [chain 1 Y14R], the enrichment is -8.87. On the same count and under the same terms, under chain 1 EEDDYTAYAPLTCGFT [chain 1 Y14G] stands -9.28; under chain 1 CEDDYTAYAPLTCYFT [chain 1 E1C], -8.53; under chain 1 EKDDYTAYAPLTCYFT [chain 1 E2K], -3.92.

Turning to chain 1 ECDDYTAYAPLTCYFT [chain 1 E2C], the enrichment was -8.79.

For the variant chain 1 ERDDYTAYAPLTCYFT [chain 1 E2R], the enrichment was -5.9. On to chain 1 EEDDTTAYAPLTCYFT [chain 1 Y5T], for which the enrichment was -6.44. As to chain 1 EEDDRTAYAPLTCYFT [chain 1 Y5R], the enrichment was -5.82. In the case of chain 1 EEDDCTAYAPLTCYFT [chain 1 Y5C], the enrichment was -7.94. For chain 1 EEDDKTAYAPLTCYFT [chain 1 Y5K], the enrichment was -4.37. Same read-out and setting: under chain 1 EEKDYTAYAPLTCYFT [chain 1 D3K] stands -4.13; under chain 1 EEHDYTAYAPLTCYFT [chain 1 D3H], -5.74; under chain 1 EECDYTAYAPLTCYFT [chain 1 D3C], -8.67.

Turning to chain 1 EERDYTAYAPLTCYFT [chain 1 D3R], the enrichment is -6.23. As to chain 1 EEDDYTAYAPLTCYDT [chain 1 F15D], the enrichment was -7.37. Still for that read-out and setting: as for chain 1 EEDDYTAYAPLTCYKT [chain 1 F15K], the figure is -5.78; as for chain 1 EEDDYTAYAPLTCYNT [chain 1 F15N], -5.51; as for chain 1 EEDDYTAYAPLTCYHT [chain 1 F15H], -6.08.

Consider chain 1 EEDDYTAYDPLTCYFT [chain 1 A9D], for which the enrichment was -7. Same read-out and setting: as for chain 1 EEDDYTAYKPLTCYFT [chain 1 A9K], the figure is -5.4; as for chain 1 EEDDYTAYCPLTCYFT [chain 1 A9C], -8.86. chain 1 EEDCYTAYAPLTCYFT [chain 1 D4C]: the enrichment was -8.01. Regarding chain 1 EEDKYTAYAPLTCYFT [chain 1 D4K], the enrichment is -5.65. As to chain 1 EEDRYTAYAPLTCYFT [chain 1 D4R], the enrichment was -5.86. Regarding chain 1 EEDTYTAYAPLTCYFT [chain 1 D4T], the enrichment is -6.65. Still for that read-out and setting: under chain 1 EEDDYTAYAPLECYFT [chain 1 T12E] stands -6.73. Still for that read-out and setting: as for chain 1 EEDDYTAYAPLGCYFT [chain 1 T12G], the figure is -9.07. On the same count and under the same terms, under chain 1 EEDDYTAYAPLKCYFT [chain 1 T12K] stands -6.36; under chain 1 EEDDYTACAPLTCYFT [chain 1 Y8C], -8.46. For the variant chain 1 EEDDYTAKAPLTCYFT [chain 1 Y8K], the enrichment was -4.84. As for chain 1 EEDDYTARAPLTCYFT [chain 1 Y8R], the enrichment is -6.96. As to chain 1 EEDDYTAPAPLTCYFT [chain 1 Y8P], the enrichment is -6.64.

chain 1 EEDDYTAYAPLTMYFT [chain 1 C13M]: the enrichment is -8.29. With chain 1 EEDDYTAYAPLTGYFT [chain 1 C13G], the enrichment is -9.21. chain 1 EEDDYTAYAPLTHYFT [chain 1 C13H]: the enrichment is -7.42. Take chain 1 EEDDYTAYAPLTWYFT [chain 1 C13W]: the enrichment is -8.42. On the same count and under the same terms, under chain 1 EEDDYTAYAPLTKYFT [chain 1 C13K] stands -7.9; under chain 1 EEDDYTAYAPLTFYFT [chain 1 C13F], -7.4; under chain 1 EEDDYTAYAPLTRYFT [chain 1 C13R], -9.32. Turning to chain 1 EEDDYTAYAPLTDYFT [chain 1 C13D], the enrichment was -7.93.

The variants in another experiment derive from B2. As to conditions: with CCL19 (biotinylated, synthetic); scale: log2.
For the variant chain 1 EEDDYTAYHPLTCYFT [chain 1 A9H], the enrichment is -7.18.

On to chain 1 EEDDYTAYKPLTCYFT [chain 1 A9K], for which the enrichment is -5.6. The same measure, in the same setting: as for chain 1 EEDDYTAYDPLTCYFT [chain 1 A9D], the figure is -7.2.

For the variant chain 1 EEDDYTAYQPLTCYFT [chain 1 A9Q], the enrichment is -6.19.

As to chain 1 EEDDYTAYGPLTCYFT [chain 1 A9G], the enrichment is -7.67. Take chain 1 EEDDYTAYAPLDCYFT [chain 1 T12D]: the enrichment was -7.63.

For the variant chain 1 EEDDYTAYAPLGCYFT [chain 1 T12G], the enrichment is -9.27. Regarding chain 1 EEDDYTAYAPLQCYFT [chain 1 T12Q], the enrichment is -6.6. With chain 1 EEDDYTAYAPNTCYFT [chain 1 L11N], the enrichment is -7.42. Consider chain 1 EEDDYTAYAPETCYFT [chain 1 L11E], for which the enrichment is -7.14. With chain 1 EEDDYTAYAPGTCYFT [chain 1 L11G], the enrichment was -9.22. As to chain 1 EEDDYTAYAPDTCYFT [chain 1 L11D], the enrichment was -8.06.

As to chain 1 EEDDYTAYASLTCYFT [chain 1 P10S], the enrichment is -8.17.

For chain 1 EEDDYTAYADLTCYFT [chain 1 P10D], the enrichment is -7.38.

With chain 1 EEDDYTAYACLTCYFT [chain 1 P10C], the enrichment was -8.69.

Consider chain 1 EEDDYTAYARLTCYFT [chain 1 P10R], for which the enrichment was -8.05.

In the case of chain 1 EEDDYTAYAELTCYFT [chain 1 P10E], the enrichment was -6.87. Take chain 1 EEDDYTAYAALTCYFT [chain 1 P10A]: the enrichment was -7.68. For the variant chain 1 EEDDYTAYANLTCYFT [chain 1 P10N], the enrichment is -6.99. In the case of chain 1 EEDDYTAYAHLTCYFT [chain 1 P10H], the enrichment was -6.93.

Turning to chain 1 EEDDYTAYAQLTCYFT [chain 1 P10Q], the enrichment is -5.36. The same measure, in the same setting: under chain 1 EEDDYTAYAKLTCYFT [chain 1 P10K] stands -5.94; under chain 1 EEDDYTAYAILTCYFT [chain 1 P10I], -7.41. Same read-out and setting: under chain 1 EEDDYTAYAPLTMYFT [chain 1 C13M] stands -8.49. With chain 1 EEDDYTAYAPLTGYFT [chain 1 C13G], the enrichment is -9.4. As for chain 1 EEDDYTAYAPLTRYFT [chain 1 C13R], the enrichment was -9.52. As for chain 1 EEDDYTAYAPLTWYFT [chain 1 C13W], the enrichment was -8.62.

As for chain 1 EEDDYTAYAPLTFYFT [chain 1 C13F], the enrichment is -7.6. Same read-out and setting: under chain 1 EEDDYTAYAPLTEYFT [chain 1 C13E] stands -8.9.
